Patent US20140348805A1

Biological target: HLA-A2 (HLA-A*0201) presenting tyrosinase369-377 peptide … on cells (human)
Test: cell-based or functional assay

| IFN-γ secretion after co-culture with Mel-93.04A12 (HLA-A2+tyrosinase+) [pg/mL] | peptide concentration needed for 50% relative lysis (half-maximum lysis), 51Cr-release assay, peptide-pulsed T2 cells [pM] | specific lysis of melanoma cells, 51Cr-release assay [%] | amount of peptide presented by T2 cells to cause release of 2000 pg/ml interferon-gamma, fold lower than TCR-D115 [fold] | maximum level of interferon-gamma in 24 hours (T2 cells pulsed with YMD peptide) [pg/mL] | peptide amount at first detection of cytokine secretion, fold less than TCR-D115 (PBMC pulsed with YMD peptide) [fold] | peptide concentration for 50% of maximal interferon-gamma release, fold lower than TCR-D115 (T2 cells pulsed with YMD peptide) [fold] | Substance |
| --- | --- | --- | --- | --- | --- | --- | --- |
| 1230 | 600 | 76 | – | – | – | – | TCR of T cell clone T58 (TCR-T58), human constant regions (from UniProt P01848 1-140) |
| – | – | – | 15000 | 5000 | 1000 | 100 | TCR-T58 with murine constant regions (TCRbeta-P2A-TCRalpha, codon-optimized) (from UniProt P01849 1-136) |
